These results are taken from EP4424325A1 (JCR Pharmaceuticals Co., Ltd., dated 2024).

The target in assay [1] is T1, recombinant monkey TfR, extracellular region of cynomolgus monkey transferrin receptor with a histidine tag … (cynomolgus monkey (Macaca fascicularis), UniProt Q5RDH6 89-760 (Pongo abelii entry)).
T1 construct: also called monkey TfR-ECD(Histag); cynomolgus monkey TfR; not shown: N-terminal histidine tag
T1 chain: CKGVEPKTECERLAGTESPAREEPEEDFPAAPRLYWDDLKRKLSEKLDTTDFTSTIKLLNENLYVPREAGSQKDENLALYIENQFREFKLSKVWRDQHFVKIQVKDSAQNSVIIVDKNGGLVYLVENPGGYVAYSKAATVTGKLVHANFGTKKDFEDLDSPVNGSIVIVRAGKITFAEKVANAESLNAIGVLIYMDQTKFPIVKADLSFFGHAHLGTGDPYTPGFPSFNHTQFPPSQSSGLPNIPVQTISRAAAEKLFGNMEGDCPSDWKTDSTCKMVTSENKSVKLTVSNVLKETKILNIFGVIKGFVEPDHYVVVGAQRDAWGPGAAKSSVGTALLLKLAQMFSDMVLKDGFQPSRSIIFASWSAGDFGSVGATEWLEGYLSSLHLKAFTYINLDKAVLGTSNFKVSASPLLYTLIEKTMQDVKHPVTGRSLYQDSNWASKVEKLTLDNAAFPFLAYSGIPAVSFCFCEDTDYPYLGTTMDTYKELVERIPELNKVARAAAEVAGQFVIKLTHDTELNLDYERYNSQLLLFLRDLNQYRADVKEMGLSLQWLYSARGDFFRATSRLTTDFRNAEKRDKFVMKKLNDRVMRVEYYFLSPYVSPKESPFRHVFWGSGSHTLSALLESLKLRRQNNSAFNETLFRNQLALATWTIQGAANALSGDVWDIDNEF
Kind of assay: ratio calculated from the measured KD values.

In assay [2] the target is T1, recombinant monkey TfR, extracellular …. Put plainly: BLI (OctetRED96), His-tagged TfR ECD on Ni-NTA sensor, peptide in solution.
Assay [3] concerns the target T2, recombinant hTfR, extracellular region of human transferrin receptor with a histidine tag added at the … (human, UniProt P02786 89-760).
T2 construct: also called hTfR-ECD(Histag); human TfR; not shown: N-terminal histidine tag
Described as above.
Target sequence in this assay (P02786 89-760): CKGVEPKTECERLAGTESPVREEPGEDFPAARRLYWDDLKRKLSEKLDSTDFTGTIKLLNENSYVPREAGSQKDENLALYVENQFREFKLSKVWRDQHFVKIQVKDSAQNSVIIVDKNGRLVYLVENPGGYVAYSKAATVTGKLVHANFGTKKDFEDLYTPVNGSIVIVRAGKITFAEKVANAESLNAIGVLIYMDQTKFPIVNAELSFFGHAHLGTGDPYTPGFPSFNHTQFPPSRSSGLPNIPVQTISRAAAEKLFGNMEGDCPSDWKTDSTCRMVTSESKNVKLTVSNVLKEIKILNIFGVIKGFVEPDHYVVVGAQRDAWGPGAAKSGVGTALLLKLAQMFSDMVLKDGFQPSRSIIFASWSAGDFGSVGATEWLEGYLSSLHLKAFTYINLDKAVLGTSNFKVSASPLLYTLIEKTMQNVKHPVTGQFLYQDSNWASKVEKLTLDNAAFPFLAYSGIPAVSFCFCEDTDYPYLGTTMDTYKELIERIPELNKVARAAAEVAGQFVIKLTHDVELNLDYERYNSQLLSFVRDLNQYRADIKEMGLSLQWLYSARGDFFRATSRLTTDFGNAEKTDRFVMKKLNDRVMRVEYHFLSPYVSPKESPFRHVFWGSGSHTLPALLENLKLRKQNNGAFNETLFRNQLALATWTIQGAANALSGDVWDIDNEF

The target in assay [4] is T1, recombinant monkey TfR, extracellular …. Put plainly: BLI (OctetRED96), method of Example 7, His-tagged TfR ECD on Ni-NTA sensor.
Assay [5] concerns the target T2, recombinant hTfR, extracellular region …. The assay is described as above.
Assay [6] concerns the target T3, recombinant hTfR containing the extracellular region of hTfR (coated on the ELISA plate in Example 16) (human, UniProt P02786 89-760).
T3 construct: That contradicts 'extracellular region' (residue 89 to the C-terminus elsewhere); also called human transferrin receptor
Put plainly: ELISA, recombinant hTfR coated on plate, detection with anti-hIDS monoclonal antibody. For orientation: An ELISA detects its analyte on a solid surface through an enzyme-linked reagent.

By Kd is commonly meant the concentration at which binding is half-saturated. Broadly, the koff is the first-order rate constant of dissociation. Usually kon stands for the second-order rate constant of association. One may read the EC50 as the concentration needed to bring the measured effect to its halfway point.

B1: hTfR affinity peptide 4 (VHH)
VHH: QVQLVESGGGLVQAGASLRLSCAASGRTDGIDRMAWFHQAPGEGREFVAGINKRGGGVDYAPGVKGRFTLSLDSDKNTLYLQMNNLRLEDTGVYSCAVGSGRIIVKSDTWGQGTQVTVSS
notes: The tag is stated only for peptide 1; Peptides 2 to 5 were obtained 'in the same manner'; also called clone 4; VHH(4)
As to B1, the “relative value of KD with monkey TfR (KD with hTfR taken as 1)” value (from here on “relative value of KD with monkey TfR”) in assay [1] was 0.83. Also, in assay [2], the Kd turned out to be 9.92 nM, the koff came out at 0.00316 s⁻¹ and the kon was found to be 318000 M⁻¹ s⁻¹. Besides, in assay [3], the Kd worked out at 11.9 nM, the koff came out at 0.0027 s⁻¹ and the kon was found to be 227000 M⁻¹ s⁻¹.

B2: VHH3-GS3-hSGSH (other)
chain: DYKDDDDKQVQLVESGGGLVQPGESLRLSCAASGSIFDIYVMRWYRQAPGNQREWVASIYDGGRNDYDNVVKGRFTISRDNAKNTVHLQMNSLKPEDTAVYFCNVLTYAGRPYWGQGTQVTVSSGGGGSGGGGSGGGGSRPRNALLLLADDGGFESGAYNNSAIATPHLDALARRSLLFRNAFTSVSSCSPSRASLLTGLPQHQNGMYGLHQDVHHFNSFDKVRSLPLLLSQAGVRTGIIGKKHVGPETVYPFDFAYTEENGSVLQVGRNITRIKLLVRKFLQTQDDRPFFLYVAFHDPHRCGHSQPQYGTFCEKFGNGESGMGRIPDWTPQAYDPLDVLVPYFVPNTPAARADLAAQYTTVGRMDQGVGLVLQELRDAGVLNDTLVIFTSDNGIPFPSGRTNLYWPGTAEPLLVSSPEHPKRWGQVSEAYVSLLDLTPTILDWFSIPYPSYAIFGSKTIHLTGRSLLPALEAEPLWATVFGSQSHHEVTMSYPMRSVQHRHFRLVHNLNFKMPFPIDQDFYVSPTFQDLLNRTTAGQPTGWYKDLRHYYYRARWELYDRSRDPHETQNLATDPRFAQLLEMLRDQLAKWQWETHDPWVCAPDGVLEEKLSPQCQPLHNEL
notes: VHH-enzyme fusion; Purified on anti-FLAG M1 gel; also called VHH-GS3-hSGSH
In the case of B2, in assay [4], the Kd is 0.00116 nM, the off-rate (koff) came out at 4.81e-07 s⁻¹ and the on-rate (kon) was determined as 417000 M⁻¹ s⁻¹. For the same molecule, in assay [5], the Kd is less than 0.001 nM, the koff was less than 1e-07 s⁻¹ and the association rate constant (kon) amounted to 423000 M⁻¹ s⁻¹.

B3: VHH5-Tandem-GS3-hIDS (other)
chain: QVQLVESGGGLVQPGGSLRLSCAASGSIFDIYVMRWYRQAPGKGLEWVASIYDGGRNDYDNVVKGRFTISRDNSKNTLYLQMNSLRAEDTAVYFCNVLTYAGRPYWGQGTQVTVSSGSQVQLVESGGGLVQPGGSLRLSCAASGSIFDIYVMRWYRQAPGKGLEWVASIYDGGRNDYDNVVKGRFTISRDNSKNTLYLQMNSLRAEDTAVYFCNVLTYAGRPYWGQGTQVTVSSGGGGSGGGGSGGGGSSETQANSTTDALNVLLIIVDDLRPSLGCYGDKLVRSPNIDQLASHSLLFQNAFAQQAVCAPSRVSFLTGRRPDTTRLYDFNSYWRVHAGNFSTIPQYFKENGYVTMSVGKVFHPGISSNHTDDSPYSWSFPPYHPSSEKYENTKTCRGPDGELHANLLCPVDVLDVPEGTLPDKQSTEQAIQLLEKMKTSASPFFLAVGYHKPHIPFRYPKEFQKLYPLENITLAPDPEVPDGLPPVAYNPWMDIRQREDVQALNISVPYGPIPVDFQRKIRQSYFASVSYLDTQVGRLLSALDDLQLANSTIIAFTSDHGWALGEHGEWAKYSNFDVATHVPLIFYVPGRTASLPEAGEKLFPYLDPFDSASQLMEPGRQSMDLVELVSLFPTLAGLAGLQVPPRCPVPSFHVELCREGKNLLKHFRFRDLEEDPYLPGNPRELIAYSQYPRPSDIPQWNSDKPSLKDIKIMGYSIRTIDYRYTVWVGFNPDEFLANFSDIHAGELYFVDSDPLQDHNMYNDSQGGDLFQLLMP
notes: Two copies of peptide 5 in tandem, fused to hIDS; also called VHH5-Tandem-GS3-hI2S
For the molecule B3, the concentration for a half-maximal effect (EC50) in assay [6] was 0.077 nM.

B4: VHH5-GS3-hIDS (other)
chain: QVQLVESGGGLVQPGGSLRLSCAASGSIFDIYVMRWYRQAPGKGLEWVASIYDGGRNDYDNVVKGRFTISRDNSKNTLYLQMNSLRAEDTAVYFCNVLTYAGRPYWGQGTQVTVSSGGGGSGGGGSGGGGSSETQANSTTDALNVLLIIVDDLRPSLGCYGDKLVRSPNIDQLASHSLLFQNAFAQQAVCAPSRVSFLTGRRPDTTRLYDFNSYWRVHAGNFSTIPQYFKENGYVTMSVGKVFHPGISSNHTDDSPYSWSFPPYHPSSEKYENTKTCRGPDGELHANLLCPVDVLDVPEGTLPDKQSTEQAIQLLEKMKTSASPFFLAVGYHKPHIPFRYPKEFQKLYPLENITLAPDPEVPDGLPPVAYNPWMDIRQREDVQALNISVPYGPIPVDFQRKIRQSYFASVSYLDTQVGRLLSALDDLQLANSTIIAFTSDHGWALGEHGEWAKYSNFDVATHVPLIFYVPGRTASLPEAGEKLFPYLDPFDSASQLMEPGRQSMDLVELVSLFPTLAGLAGLQVPPRCPVPSFHVELCREGKNLLKHFRFRDLEEDPYLPGNPRELIAYSQYPRPSDIPQWNSDKPSLKDIKIMGYSIRTIDYRYTVWVGFNPDEFLANFSDIHAGELYFVDSDPLQDHNMYNDSQGGDLFQLLMP
notes: VHH-enzyme fusion; also called VHH5-GS3-hI2S
B4: the EC50 in assay [6] stood at 1.09 nM.

B5: VHH6-GS3-hIDS (other)
chain: QVQLVESGGGLVQPGGSLRLSCAASGSIFDIYVMRWYRQAPGKGLEWVASIYAGGRNDYDNVVKGRFTISRDNSKNTLYLQMNSLRAEDTAVYFCNVLTYAGRPYWGQGTQVTVSSGGGGSGGGGSGGGGSSETQANSTTDALNVLLIIVDDLRPSLGCYGDKLVRSPNIDQLASHSLLFQNAFAQQAVCAPSRVSFLTGRRPDTTRLYDFNSYWRVHAGNFSTIPQYFKENGYVTMSVGKVFHPGISSNHTDDSPYSWSFPPYHPSSEKYENTKTCRGPDGELHANLLCPVDVLDVPEGTLPDKQSTEQAIQLLEKMKTSASPFFLAVGYHKPHIPFRYPKEFQKLYPLENITLAPDPEVPDGLPPVAYNPWMDIRQREDVQALNISVPYGPIPVDFQRKIRQSYFASVSYLDTQVGRLLSALDDLQLANSTIIAFTSDHGWALGEHGEWAKYSNFDVATHVPLIFYVPGRTASLPEAGEKLFPYLDPFDSASQLMEPGRQSMDLVELVSLFPTLAGLAGLQVPPRCPVPSFHVELCREGKNLLKHFRFRDLEEDPYLPGNPRELIAYSQYPRPSDIPQWNSDKPSLKDIKIMGYSIRTIDYRYTVWVGFNPDEFLANFSDIHAGELYFVDSDPLQDHNMYNDSQGGDLFQLLMP
notes: VHH-enzyme fusion; also called VHH6-GS3-hI2S
With B5, the EC50 in assay [6] was determined as 22.7 nM.

B6: hTfR affinity peptide 5 (VHH)
VHH: QVQLVESGGGLVQPGGSLRLSCAASGSIFDIYVMRWYRQAPGKGLEWVASIYDGGRNDYDNVVKGRFTISRDNSKNTLYLQMNSLRAEDTAVYFCNVLTYAGRPYWGQGTQVTVSS
notes: Same CDRs as peptide 3; The tag is stated only for peptide 1; Peptides 2 to 5 were obtained 'in the same manner'; also called clone 5; VHH(5)
Take B6: the “relative value of KD with monkey TfR” value in assay [1] was 1.27. In assay [2], the Kd was 17.5 nM, the koff worked out at 0.00695 s⁻¹ and the kon is 396000 M⁻¹ s⁻¹. Also, in assay [3], the Kd came to 13.8 nM, the dissociation rate constant (koff) was 0.00562 s⁻¹ and the association rate constant (kon) came to 407000 M⁻¹ s⁻¹.

B7: hTfR affinity peptide 3 (VHH)
VHH: QVQLVESGGGLVQPGESLRLSCAASGSIFDIYVMRWYRQAPGNQREWVASIYDGGRNDYDNVVKGRFTISRDNAKNTVHLQMNSLKPEDTAVYFCNVLTYAGRPYWGQGTQVTVSS
notes: The tag is stated only for peptide 1; Peptides 2 to 5 were obtained 'in the same manner'; also called clone 3; VHH(3)
For the molecule B7, the “relative value of KD with monkey TfR” value in assay [1] is 1.02. In assay [2], the equilibrium dissociation constant (Kd) worked out at 10.7 nM, the koff was determined as 0.0123 s⁻¹ and the association rate constant (kon) was determined as 1.15e+06 M⁻¹ s⁻¹. Also, in assay [3], the dissociation constant Kd was determined as 10.5 nM, the koff was determined as 0.006 s⁻¹ and the kon was found to be 571000 M⁻¹ s⁻¹.

B8: hTfR affinity peptide 6 (VHH)
VHH: QVQLVESGGGLVQPGGSLRLSCAASGSIFDIYVMRWYRQAPGKGLEWVASIYAGGRNDYDNVVKGRFTISRDNSKNTLYLQMNSLRAEDTAVYFCNVLTYAGRPYWGQGTQVTVSS
notes: One amino acid of CDR2 of peptide 5 is substituted; also called VHH6
In the case of B8, in assay [3], the dissociation constant Kd stood at 137 nM, the koff worked out at 0.0586 s⁻¹ and the kon is 428000 M⁻¹ s⁻¹.

B9: hTfR affinity peptide 1 (VHH)
VHH: QVQLVESGGGLVHPGGSLRLSCVASGTSFSLNVVTWYRQALGKQREWVATINQSEAPTYADSVKGRFTISRDGAKNTVYLQMNSLVTEDTALYYCYDRYNEIRGQGTQVTVSS
notes: Expressed in CHO-S cells, purified on Anti-FLAG M1 agarose; also called clone 1; VHH(1)
For B9, the “relative value of KD with monkey TfR” value in assay [1] was 1.06. In assay [3], the Kd amounted to 97 nM, the off-rate constant (koff) was 0.0271 s⁻¹ and the kon turned out to be 280000 M⁻¹ s⁻¹.

B10: hTfR affinity peptide 2 (VHH)
VHH: QVQLVESGGGLVHPGGSLSLSCAASGTSFSFNTVTWYRQALGKQREWVATINGSGAPTYADSVKGRFTISRDGAKNTVYLLMNSLVTEDTALYYCYDRYNEIRGQGTQVTVSS
notes: The tag is stated only for peptide 1; Peptides 2 to 5 were obtained 'in the same manner'; also called clone 2; VHH(2)
Take B10: the “relative value of KD with monkey TfR” value in assay [1] is 2.36. In addition, in assay [3], the Kd came out at 61.4 nM, the koff was 0.0146 s⁻¹ and the on-rate constant (kon) amounted to 237000 M⁻¹ s⁻¹.
